We go through one substance from US20160296648A1.

Experiment [1] deals with CD22 (human) (UniProt P20273). Kind of experiment: flow cytometry, BM blasts at day 15 post-RAIT (FIG. 1A). A general note: A flow cytometer gives signals particle by particle.
Experiment [2] addresses CD22 (human) (UniProt P20273). Kind of experiment: flow cytometry on residual blasts of one non-responder after RAIT.
In experiment [3] the target is CD22 (human) (UniProt P20273). Kind of experiment: flow cytometry on peripheral blood blasts at inclusion.
Experiment [4] deals with CD22 (human) (UniProt P20273). Kind of experiment: flow cytometry on BM blasts of a patient who had received epratuzumab (epratuzumab on the cells).
Experiment [5] has as its target CD22 (human) (UniProt P20273). Kind of experiment: flow cytometry, normal BM B cells at day 180 post-RAIT (FIG. 1B), epratuzumab gone from the surface.
Experiment [6] has as its target CD22 (human) (UniProt P20273). Kind of experiment: flow cytometry on residual blasts of three non-responders after RAIT (epratuzumab on the cells).
For experiment [7], the target named is CD22 (human) (UniProt P20273). Kind of experiment: flow cytometry on bone marrow blasts at inclusion.
In experiment [8] the target is CD22 (human) (UniProt P20273). Kind of experiment: flow cytometry on blasts after elimination of epratuzumab from the surface.
Experiment [9] deals with CD22 (human) (UniProt P20273). Kind of experiment: flow cytometry, normal BM B cells at day 90 post-RAIT (FIG. 1B).
Experiment [10] concerns the target CD22 (human) (UniProt P20273). Kind of experiment: flow cytometry on residual blasts of four non-responders after RAIT.

Take “SHCL-1 (anti-CD22 antibody clone, PE or PerCp-Cy5.5 conjugated, BD Biosciences)”: the % CD22 SHCL-1 blast expression with CD22 (human) [1] turned out to be 100%. In addition, the % positivity of residual blasts with CD22 (human) [2] was 84%; with CD22 (human) [6], 100%; in the experiment with CD22 (human) [10], 100%. The same substance yielded a median % of CD22-SHCL-1 expression (peripheral blasts) with CD22 (human) [3] of 100%. In the experiment with CD22 (human) [4], the % of SHCL-1+ blasts is 100%. The % positive (normal BM B cells) with CD22 (human) [5] came out at 100%. The median % of CD22-SHCL-1 expression (bone marrow blasts) with CD22 (human) [7] came to 100%. In the experiment with CD22 (human) [8], this substance registered a % labeling of blasts of 100%. In the experiment with CD22 (human) [9], this substance gave a % CD22 SHCL-1 expression (normal BM B cells) of 100%.
